Measured values: article PMC10998906 (NPJ Vaccines, 2024)

Target: H5 GCN4 (IN05 HA, GCN4-trimerized) (Influenza A virus …, UniProt A5A5L7, stabilised)
Experiment: negative-stain EM
Conditions: both partners purified

B1: CR9114 Fab (Fab, V domains shown)
VH: QVQLVQSGAEVKKPGSSVKVSCKSSGGTSNNYAISWVRQAPGQGLDWMGGISPIFGSTAYAQKFQGRVTISADIFSNTAYMELNSLTSEDTAVYFCARHGNYYYYSGMDVWGQGTTVTVSS
VL: QSALTQPPAVSGTPGQRVTISCSGSDSNIGRRSVNWYQQFPGTAPKLLIYSNDQRPSVVPDRFSGSKSGTSASLAISGLQSEDEAEYYCAAWDDSLKGAVFGGGTQLTVL
Question: How did the “stoichiometry N” value turn out when B1 was run?
Answer: The value was 3 Fabs per trimer.
